For assay [1], the target named is T1, IL-11 (Cat. 12225-HNCE, Sino Biological Inc.) (UniProt P20809 22-199, limits assumed).
T1 sequence (looked up): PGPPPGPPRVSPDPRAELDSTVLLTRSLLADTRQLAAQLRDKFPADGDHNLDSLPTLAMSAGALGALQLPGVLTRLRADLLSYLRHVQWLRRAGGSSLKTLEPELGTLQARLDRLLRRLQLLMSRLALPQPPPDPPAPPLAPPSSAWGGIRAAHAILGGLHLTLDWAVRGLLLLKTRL
The assay is described as follows: cell-based or functional assay.

The target of assay [2] is T2, human IL-11 (AAH12506.1, Pro22-Leu199) (human, UniProt P20809 22-199).
T2 construct: The range Pro22-Leu199 counts on AAH12506.1; The Octet runs say only 'human IL-11'; also called hIL-11
T2 chain: T1 sequence (looked up) with H154L
The assay is described as follows: BLI (Octet), antibody captured, human IL-11 in solution. The procedure, abridged: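 Kd, kon and koff were derived by fitting blank-subtracted bio-layer interferometry curves to a 1:1 Langmuir binding model. On a Fortebio Octet QKe System, antibodies diluted in HBS-EP+ buffer were captured on AMC or AHC biosensors and exposed to 300 nM human IL-11 for 300 seconds of association and 300 seconds of dissociation.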
(In BLI a coated tip is dipped into the sample, and binding shifts an interference pattern.)

Positions count from the first letter of the chain named.

The term Kd denotes the equilibrium constant for the complex coming apart. A high value points to weaker binding. Broadly, the koff is the first-order rate constant of dissociation. A high value points to fast dissociation. The kon is a measure of how fast the partners come together. A high value points to fast association.

B1: hz18A10-VHm3 + hz18A10-VLm9 (antibody, V domains shown)
VH: EVQLVQSGAEVKKPGASVKVSCKASGYTFTTYDMDWVRQAPGQGLEWMGTIYPGNGDTSYNQKFKGRVTMTRDTSTSTVYMELSSLRSEDTAVYYCARGDLYALDYWGQGTLVTVSS
VL: DIQMTQSPSSLSASVGDRVTITCKASQSVYSDVAWYQQKPGKAPKLLIYSASNRYTGVPSRFSGSGSGTDFTFTISSLQPEDIATYYCQHDYSSPYTFGQGTKLEIK
notes: Constant regions not restated for this antibody
As to B1, the “Blocking activity (IC50), STAT3-luc reporter” value (“Blocking activity (IC50)” for short) in assay [1] is 0.248 µg/mL. In assay [2], the affinity, expressed as Kd, was 95.9 pM; the koff was found to be 9.7e-05 s⁻¹; the kon was found to be 1.01e+06 M⁻¹ s⁻¹.

B2: hz18A10-VHm17 + hz18A10-VLm19 (antibody, V domains shown)
VH: B1 VH with T31H, N55E
VL: B1 VL with S31R
notes: as for B1
For the molecule B2, the “Blocking activity (IC50)” value in assay [1] came to 0.013 µg/mL. Further, in assay [2], the affinity, expressed as Kd, was 7.08 pM; the dissociation rate constant (koff) was determined as 8.23e-06 s⁻¹; the kon was determined as 1.16e+06 M⁻¹ s⁻¹.

B3: hz18A10-VHm20 + hz18A10-VLm19 (antibody, V domains shown)
VH: B1 VH with T31H, D33N, N55Q
VL: B1 VL with S31R
notes: as for B1
As for B3, the “Blocking activity (IC50)” value in assay [1] amounted to 0.061 µg/mL. Moreover, in assay [2], binding was put at a Kd of 220 pM, the koff was 0.000227 s⁻¹ and the kon worked out at 1.03e+06 M⁻¹ s⁻¹.

B4: hz18A10-VHm6 + hz18A10-VLm9 (antibody, V domains shown)
VH: B1 VH with T30N, T31H
VL: B1 VL
notes: as for B1
In the case of B4, in assay [1], the “Blocking activity (IC50)” value turned out to be 0.034 µg/mL. In assay [2], the Kd is 7.18 pM, the koff was determined as 7.17e-06 s⁻¹ and the on-rate (kon) worked out at 999000 M⁻¹ s⁻¹.

B5: hz18A10-VHm4 + hz18A10-VLm18 (antibody, V domains shown)
VH: B1 VH with D33N, M34I
VL: B1 VL with S31R, S50R, N53S
notes: as for B1
B5: the “Blocking activity (IC50)” value in assay [1] was 1.94 µg/mL. Moreover, in assay [2], the dissociation constant (Kd) was found to be 322 pM, the koff amounted to 0.000266 s⁻¹ and the kon was determined as 826000 M⁻¹ s⁻¹.

B6: hz18A10-VHm16 + hz18A10-VLm19 (antibody, V domains shown)
VH: B1 VH with T31H, G56A
VL: B1 VL with S31R
notes: as for B1
For the molecule B6, the “Blocking activity (IC50)” value in assay [1] was found to be 0.034 µg/mL. Besides, in assay [2], the Kd was 95.6 pM, the koff stood at 0.00012 s⁻¹ and the kon stood at 1.26e+06 M⁻¹ s⁻¹.

B7: hz18A10-VHm10 + hz18A10-VLm19 (antibody, V domains shown)
VH: B1 VH with T30N, T31H, D33N
VL: B1 VL with S31R
notes: as for B1
For the molecule B7, in assay [1], the “Blocking activity (IC50)” value was determined as 0.136 µg/mL. In assay [2], this molecule displayed a Kd of 235 pM, a koff of 0.000216 s⁻¹ and an on-rate (kon) of 917000 M⁻¹ s⁻¹.

B8: hz18A10-VHm5 + hz18A10-VLm9 (antibody, V domains shown)
VH: B1 VH with T30I, D33N, V79A, G99A, Y102H, A103F
VL: B1 VL
notes: as for B1
With B8, the “Blocking activity (IC50)” value in assay [1] was found to be 11.6 µg/mL. In assay [2], the Kd was determined as 1150 pM, the koff stood at 0.000732 s⁻¹ and the kon was determined as 639000 M⁻¹ s⁻¹.

B9: hz18A10-VHm9 + hz18A10-VLm19 (antibody, V domains shown)
VH: B1 VH with D35S
VL: B1 VL with S31R
notes: as for B1
For the molecule B9, the “Blocking activity (IC50)” value in assay [1] stood at 0.99 µg/mL. In assay [2], this molecule displayed a dissociation constant Kd of 538 pM, a koff of 0.000448 s⁻¹ and a kon of 833000 M⁻¹ s⁻¹.

B10: hz18A10-VHm8 + hz18A10-VLm19 (antibody, V domains shown)
VH: B1 VH with D35H
VL: B1 VL with S31R
notes: as for B1
As for B10, the “Blocking activity (IC50)” value in assay [1] was found to be 8.64 µg/mL. In assay [2], this molecule registered a Kd of 1440 pM, a koff of 0.0011 s⁻¹ and a kon of 760000 M⁻¹ s⁻¹.

B11: hz18A10-VHm12 + hz18A10-VLm19 (antibody, V domains shown)
VH: B1 VH with T31H
VL: B1 VL with S31R
notes: as for B1
On to B11, for which the “Blocking activity (IC50)” value in assay [1] is 0.011 µg/mL. For the same molecule, in assay [2], the Kd was 185 pM, the koff was determined as 0.000173 s⁻¹ and the on-rate constant (kon) came to 934000 M⁻¹ s⁻¹.

B12: hz18A10-VHm7 + hz18A10-VLm19 (antibody, V domains shown)
VH: B1 VH with M34I
VL: B1 VL with S31R
notes: as for B1
As for B12, the “Blocking activity (IC50)” value in assay [1] amounted to 1.22 µg/mL. In assay [2], this molecule displayed a dissociation constant (Kd) of 105 pM, a koff of 0.000113 s⁻¹ and a kon of 1.08e+06 M⁻¹ s⁻¹.

B13: hz18A10-VHm4 + hz18A10-VLm9 (antibody, V domains shown)
VH: B1 VH with D33N, M34I
VL: B1 VL
notes: as for B1
Turning to B13, the “Blocking activity (IC50)” value in assay [1] turned out to be 2.23 µg/mL. For the same molecule, in assay [2], the affinity, expressed as Kd, was 488 pM; the koff turned out to be 0.000496 s⁻¹; the on-rate (kon) was found to be 1.02e+06 M⁻¹ s⁻¹.

B14: hz18A10-VHm13 + hz18A10-VLm19 (antibody, V domains shown)
VH: B1 VH with T31H, D33E
VL: B1 VL with S31R
notes: as for B1
B14: in assay [1], the “Blocking activity (IC50)” value was 0.338 µg/mL. Besides, in assay [2], the Kd was determined as 203 pM, the koff was found to be 0.000148 s⁻¹ and the kon was found to be 729000 M⁻¹ s⁻¹.

B15: hz18A10-VHm11 + hz18A10-VLm19 (antibody, V domains shown)
VH: B1 VH with T31H, D33N
VL: B1 VL with S31R
notes: as for B1
In the case of B15, the “Blocking activity (IC50)” value in assay [1] was 0.112 µg/mL. In assay [2], this molecule returned a Kd of 138 pM, an off-rate (koff) of 0.000119 s⁻¹ and an on-rate (kon) of 862000 M⁻¹ s⁻¹.

B16: hz18A10-VHm3 + hz18A10-VLm19 (antibody, V domains shown)
VH: B1 VH
VL: B1 VL with S31R
notes: as for B1
As to B16, the “Blocking activity (IC50)” value in assay [1] was 0.262 µg/mL. In assay [2], this molecule had a Kd of 683 pM, a dissociation rate constant (koff) of 0.000652 s⁻¹ and a kon of 954000 M⁻¹ s⁻¹.

B17: hz18A10-VHm14 + hz18A10-VLm19 (antibody, V domains shown)
VH: B1 VH with T31H, D33Q
VL: B1 VL with S31R
notes: as for B1
As to B17, the “Blocking activity (IC50)” value in assay [1] was 1.03 µg/mL. In assay [2], the affinity, expressed as Kd, was 678 pM; the koff is 0.000485 s⁻¹; the kon was determined as 716000 M⁻¹ s⁻¹.

B18: hz18A10-VHm6 + hz18A10-VLm19 (antibody, V domains shown)
VH: B1 VH with T30N, T31H
VL: B1 VL with S31R
notes: as for B1
For the molecule B18, the “Blocking activity (IC50)” value in assay [1] was 0.017 µg/mL. In assay [2], this molecule showed a Kd of 213 pM, an off-rate constant (koff) of 0.000194 s⁻¹ and a kon of 911000 M⁻¹ s⁻¹.

B19: hz18A10-VHm18 + hz18A10-VLm19 (antibody, V domains shown)
VH: B1 VH with T31H, D33N, N55E
VL: B1 VL with S31R
notes: as for B1
Regarding B19, the “Blocking activity (IC50)” value in assay [1] is 0.79 µg/mL. In assay [2], this molecule gave an equilibrium dissociation constant (Kd) of 313 pM, a koff of 0.000354 s⁻¹ and an association rate constant (kon) of 1.13e+06 M⁻¹ s⁻¹.

B20: hz18A10-VHm15 + hz18A10-VLm19 (antibody, V domains shown)
VH: B1 VH with T31H, D33S
VL: B1 VL with S31R
notes: as for B1
In the case of B20, the “Blocking activity (IC50)” value in assay [1] was 0.511 µg/mL. Moreover, in assay [2], the affinity, expressed as Kd, was 346 pM; the koff was 0.000263 s⁻¹; the kon worked out at 760000 M⁻¹ s⁻¹.

Source of the values: patent US20250197488A1 (MABWELL SHANGHAI BIOSCIENCE, published 2025).
